In publication PMC5454378, “Histone deacetylase 10 structure and molecular function as a polyamine deacetylase” (Nature Communications, 2017):

B1: zHDAC10Δ (Danio rerio) (protein)
chain: MASGSALIFDEEMSRYKLLWTDPACEIEVPERLTVSYEALRTHGLAQRCKAVPVRQATEQEILLAHSEEYLEAVKQTPGMNVEELMAFSKKYNDVYFHQNIYHCAKLAAGATLQLVDSVMKREVRNGMALVRPPGHHSQRSAANGFCVFNNVAIAALYAKKNYNLNRILIVDWDVHHGQGIQYCFEEDPSVLYFSWHRYEHQSFWPNLPESDYSSVGKGKGSGFNINLPWNKVGMTNSDYLAAFFHVLLPVAYEFDPELVIVSAGFDSAIGDPEGEMCALPEIFAHLTHLLMPLAAGKMCVVLEGGYNLTSLGQSVCQTVHSLLGDPTPRISGLGTACDSALESIQNVRNVQSSYWSSFKHLAQSETNPKRPRLDATNGGPKESSEPASESNPKKTAQDIVWPEPLKRMPASVRTVVVPPPGVELTLPKNCQHSGDISESTAKEVQRIRDKHFHDLTDQNILRSLGNIISVLDRMMRSDEVCNGCVVVSDLSVSVQCALQHALTEPAERVLVVYVGDGELPVKTNDGKVFLVQICTKETEDKCVNRLSLCLREGESLTAGFMQALLGLILPVAYEFNPALVLGIVGETAAKTGLMTVWGHMTCLIQGLARGRTLTLLQGYDKDLLELTVSALSGASISPLGPLRALKPEDVEMMEKQRQRLQERWGLLRCTVSES
notes: proteolytically (trypsin) nicked zHDAC10, heterodimer of PDAC and pseudo-deacetylase domains
B2: hHDAC6 CD12 (Homo sapiens) (protein)
chain: MTSTGQDSTTTRQRRSRQNPQSPPQDSSVTSKRNIKKGAVPRSIPNLAEVKKKGKMKKLGQAMEEDLIVGLQGMDLNLEAEALAGTGLVLDEQLNEFHCLWDDSFPEGPERLHAIKEQLIQEGLLDRCVSFQARFAEKEELMLVHSLEYIDLMETTQYMNEGELRVLADTYDSVYLHPNSYSCACLASGSVLRLVDAVLGAEIRNGMAIIRPPGHHAQHSLMDGYCMFNHVAVAARYAQQKHRIRRVLIVDWDVHHGQGTQFTFDQDPSVLYFSIHRYEQGRFWPHLKASNWSTTGFGQGQGYTINVPWNQVGMRDADYIAAFLHVLLPVALEFQPQLVLVAAGFDALQGDPKGEMAATPAGFAQLTHLLMGLAGGKLILSLEGGYNLRALAEGVSASLHTLLGDPCPMLESPGAPCRSAQASVSCALEALEPFWEVLVRSTETVERDNMEEDNVEESEEEGPWEPPVLPILTWPVLQSRTGLVYDQNMMNHCNLWDSHHPEVPQRILRIMCRLEELGLAGRCLTLTPRPATEAELLTCHSAEYVGHLRATEKMKTRELHRESSNFDSIYICPSTFACAQLATGAACRLVEAVLSGEVLNGAAVVRPPGHHAEQDAACGFCFFNSVAVAARHAQTISGHALRILIVDWDVHHGNGTQHMFEDDPSVLYVSLHRYDHGTFFPMGDEGASSQIGRAAGTGFTVNVAWNGPRMGDADYLAAWHRLVLPIAYEFNPELVLVSAGFDAARGDPLGGCQVSPEGYAHLTHLLMGLASGRIILILEGGYNLTSISESMAACTRSLLGDPPPLLTLPRPPLSGALASITETIQVHRRYWRSLRVMKVEDREGPSSSKLVTKKAPQPAKPRLAERMTTREKKVLEAGMGKVTSASFGEESTPGQTNSETAVVALTQDQPSEAATGGATLAQTISEAAIGGAMLGQTTSEEAVGGATPDQTTSEETVGGAILDQTTSEDAVGGATLGQTTSEEAVGGATLAQTTSEAAMEGATLDQTTSEEAPGGTELIQTPLASSTDHQTPPTSPVQGTTPQISPSTLIGSLRTLELGSESQGASESQAPGEENLLGEAAGGQDMADSMLMQGSRGLTDQAIFYAVTPLPWCPHLVAVCPIPAAGLDVTQPCGDCGTIQENWVCLSCYQVYCGRYINGHMLQHHGNSGHPLVLSYIDLSAWCYYCQAYVHHQALLDVKNIAHQNKFGEDMPHPH
notes: both catalytic domains CD1-CD2
B3: acetylpolyamine amidohydrolase (APAH) (Mycoplana ramosa) (protein)
chain: MRVIFSEDHKLRNAKTELYGGELVPPFEAPFRAEWILAAVKEAGFDDVVAPARHGLETVLKVHDAGYLNFLETAWDRWKAAGYKGEAIATSFPVRRTSPRIPTDIEGQIGYYCNAAETAISPGTWEAALSSMASAIDGADLIAAGHKAAFSLCRPPGHHAGIDMFGGYCFINNAAVAAQRLLDKGAKKIAILDVDFHHGNGTQDIFYERGDVFFASLHGDPAEAFPHFLGYAEETGKGAGAGTTANYPMGRGTPYSVWGEALTDSLKRIAAFGAEAIVVSLGVDTFEQDPISFFKLTSPDYITMGRTIAASGVPLLVVMEGGYGVPEIGLNVANVLKGVAG

What was measured:
Assay in all cases: purified protein, by the assay type
[1] = substrate: CC(=O)NCCCC[C@H](NC(=O)[C@H](C)NC(=O)CNC(C)=O)C(=O)Nc1ccc2c(C)cc(=O)oc2c1; parameters: fluorogenic AMC-conjugated acetyllysine peptide deacetylation, steady-state kinetics
Description: To determine steady-state kinetic parameters for the hydrolysis of a variety of acetylpolyamine and acetyllysine substrates, we prepared full-length recombinant HDAC10 from human (H. sapiens, hHDAC10) and zebrafish (D. rerio, zHDAC10). The CDs of these orthologues are highly similar based on 63%/79% sequence identity/similarity; only full-length constructs yielded soluble proteins. We first assayed the lysine deacetylase activity of these constructs against two commercially available aminomethylcoumarin (AMC)-conjugated fluorogenic acetyllysine peptides, GAK(ac)-AMC and RGK(ac)-AMC (molecular structures of all substrates are shown in Supplementary Fig. 2). […] These measurements were consistent with earlier studies reporting that HDAC10 activity was not measurable using fluorogenic peptide substrates. We also tested activity with 11 non-fluorogenic acetyllysine substrates using a […] chromatography–mass spectrometry (LC–MS)-based discontinuous assay[17] to avoid potential steric clashes that might occur with the bulky AMC group. These substrates included K(ac)NL and GAK(ac)NLQ, which mimic the peptide segment containing K73 in the proposed HDAC10 substrate MutS homologue 2 (MSH2)[22]. Again, we observed no or very low catalytic activity (Fig. 2 and Supplementary Table 1). In comparison with its closest relative, the cytosolic isozyme HDAC6 (ref. [17]), HDAC10 was clearly not an efficient lysine deacetylase.

[2] = substrate: CC(=O)NCCCCCN; parameters: steady-state kinetics of acetylpolyamine deacetylation, discontinuous LC-MS after dansyl chloride derivatization; details: 50.0 °C
Protocol: (§1) To study steady-state kinetics with non-fluorogenic peptide substrates and acetylpolyamines, a discontinuous LC–MS was employed based on the protocol of assaying nonfluorogenic acetyllysine peptide substrates for HDAC6 (ref. [17]). Assays were performed in triplicate. Briefly, 5 μl of enzyme (0.050–20 μM) in HEPES buffer (20 mM HEPES (pH 7.5), 100 mM NaCl, 5 mM KCl, 1 mM MgCl2) was added to 35 μl of substrate solution to initiate the reaction. After incubation for 15–60 min at room temperature, the reaction was quenched by addition of 50 μl of 20 mM dansyl chloride dissolved in acetonitrile followed by 10 μl of NaHCO3 (1.6 M, pH 10.0). The deacetylation products were derivatized with dansyl chloride at 50 °C for 2 hrs. The deacetylation products were detected by LC–MS using a Waters SQD equipped with an Acquity UPLC (Waters, Milford, MA, USA) and quantified by using the standard curves generated from the mass signals of the corresponding deacetylated polyamines and peptides. Inhibition of HDAC10 activity was measured by using 0.49 μM zHDAC10 with 192 μM N^8-acetylspermidine. Data were analysed by logistic regression for IC50 determination and the inhibition constant Ki was calculated based on the Cheng-Prusoff equation, Ki=IC50 / (1+[S]/KM)[45]. Assays were performed in triplicate at room temperature. We next tested the PDAC activity of hHDAC10 and zHDAC10 against several polyamine substrates using the LC–MS assay (Fig. 2, Supplementary Fig. 3 and Supplementary Table 1). […] For hHDAC10 and zHDAC10, kcat/KM=2,900±200 and 4,600±300 M^−1 s^−1, respectively; in comparison, N^1-acetylspermidine was a poor substrate with kcat/KM=24±5 and 7±2 M^−1 s^−1, respectively. Substrate specificity trends observed for zHDAC10 and hHDAC10 matched those of the previously reported mammalian N^8-acetylspermidine deacetylase activity. […] As a negative control, we examined the N^8-acetylspermidine deacetylase activity of human and zebrafish HDAC6 (ref. [17]). HDAC6 preferentially catalyses the deacetylation of the peptide substrate RGK(ac)-AMC with a catalytic efficiency >100-fold greater than that for the deacetylation of N^8-acetylspermidine. Therefore, HDAC6 is clearly an acetyllysine deacetylase and HDAC10 is an N^8-acetylspermidine deacetylase. It is notable that the molecular function of HDAC10 coincides with the cellular function of the cytosolic PDAC indicated in Fig. 1a.

[3] = substrate: CC(=O)NCCCCNCCCN; parameters: steady-state kinetics of acetylpolyamine deacetylation, discontinuous LC-MS after dansyl chloride derivatization; details: 50.0 °C
Protocol: as §1

[4] = substrate: CC(=O)NCCCCN; parameters: steady-state kinetics of acetylpolyamine deacetylation, discontinuous LC-MS after dansyl chloride derivatization; details: 50.0 °C
Protocol: as §1

[5] = substrate: CC(=O)NCCCC[C@H](NC(C)=O)C(N)=O; parameters: discontinuous LC-MS deacetylation assay, dansylated product quantified, steady-state kinetics; details: 50.0 °C
Protocol: To study steady-state kinetics with non-fluorogenic peptide substrates and acetylpolyamines, a discontinuous LC–MS was employed based on the protocol of assaying nonfluorogenic acetyllysine peptide substrates for HDAC6 (ref. [17]). Assays were performed in triplicate. Briefly, 5 μl of enzyme (0.050–20 μM) in HEPES buffer (20 mM HEPES (pH 7.5), 100 mM NaCl, 5 mM KCl, 1 mM MgCl2) was added to 35 μl of substrate solution to initiate the reaction. After incubation for 15–60 min at room temperature, the reaction was quenched by addition of 50 μl of 20 mM dansyl chloride dissolved in acetonitrile followed by 10 μl of NaHCO3 (1.6 M, pH 10.0). The deacetylation products were derivatized with dansyl chloride at 50 °C for 2 hrs. The deacetylation products were detected by LC–MS using a Waters SQD equipped with an Acquity UPLC (Waters, Milford, MA, USA) and quantified by using the standard curves generated from the mass signals of the corresponding deacetylated polyamines and peptides. Inhibition of HDAC10 activity was measured by using 0.49 μM zHDAC10 with 192 μM N^8-acetylspermidine. Data were analysed by logistic regression for IC50 determination and the inhibition constant Ki was calculated based on the Cheng-Prusoff equation, Ki=IC50 / (1+[S]/KM)[45]. Assays were performed in triplicate at room temperature.

[6] = substrate: CC(=O)NCCCN; parameters: steady-state kinetics of acetylpolyamine deacetylation, discontinuous LC-MS after dansyl chloride derivatization; details: 50.0 °C
Protocol: as §1

[7] = substrate: CC(=O)NCCCCCCCCN; parameters: steady-state kinetics of acetylpolyamine deacetylation, discontinuous LC-MS after dansyl chloride derivatization; details: 50.0 °C
Protocol: as §1

[8] = substrate: CC(=O)NCCCNCCCCN; parameters: steady-state kinetics of acetylpolyamine deacetylation, discontinuous LC-MS after dansyl chloride derivatization; details: 50.0 °C
Protocol: as §1

[9] = substrate: CC(=O)NCCCNCCCCNCCCN; parameters: steady-state kinetics of acetylpolyamine deacetylation, discontinuous LC-MS after dansyl chloride derivatization; details: 50.0 °C
Protocol: as §1

| Protein | Km [1] | Km [2] | kcat [2] | kcat/Km [2] | Km [3] | kcat [3] | kcat/Km [3] | kcat [1] | kcat/Km [1] | further results |
| --- | --- | --- | --- | --- | --- | --- | --- | --- | --- | --- |
| B1 | 40 ± 20 µM | 60 ± 10 µM | 0.036 ± 0.002 s⁻¹ | 600 ± 80 M⁻¹ s⁻¹ | 70 ± 30 µM | 0.06 ± 0.007 s⁻¹ | 800 ± 100 M⁻¹ s⁻¹ |  |  | Km [4]: 80 ± 30 µM; kcat [4]: 0.081 ± 0.009 s⁻¹; kcat/Km [4]: 980 ± 90 M⁻¹ s⁻¹ |
| B2 | 14 ± 2 µM |  |  |  |  |  |  | 0.039 ± 0.007 s⁻¹ | 2800 ± 400 M⁻¹ s⁻¹ |  |
| B3 | 120 ± 20 µM | 22 ± 4 µM | 1.5 ± 0.1 s⁻¹ | 68000 ± 7000 M⁻¹ s⁻¹ | 80 ± 20 µM | 2.5 ± 0.3 s⁻¹ | 30000 ± 5000 M⁻¹ s⁻¹ | 0.0067 ± 0.0005 s⁻¹ | 50 ± 5 M⁻¹ s⁻¹ | Km [5]: 220 ± 70 µM; kcat [5]: 0.13 ± 0.02 s⁻¹; kcat/Km [5]: 600 ± 100 M⁻¹ s⁻¹; Km [6]: 180 ± 60 µM; kcat [6]: 1.3 ± 0.2 s⁻¹; kcat/Km [6]: 7000 ± 1000 M⁻¹ s⁻¹; Km [7]: 110 ± 20 µM; kcat [7]: 1.1 ± 0.1 s⁻¹; kcat/Km [7]: 10000 ± 1000 M⁻¹ s⁻¹; Km [8]: 70 ± 20 µM; kcat [8]: 0.6 ± 0.05 s⁻¹; kcat/Km [8]: 7400 ± 600 M⁻¹ s⁻¹; Km [9]: 60 ± 10 µM; kcat [9]: 0.2 ± 0.01 s⁻¹; kcat/Km [9]: 2500 ± 900 M⁻¹ s⁻¹ |
